Test results reported in the supplement of paper PMC10724198.
± gives the standard deviation of the averaged measurements.

What was measured:
Saccharomyces cerevisiae [1] = assay: protein stability index of tFT-peptide fusion (C-terminal peptide) (PSI (0-1 scale)); higher = more stable (slower turnover)
Description: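 MPS profiling in S. cerevisiae of the tFT-X12 degron library: putative degron peptides plus stable controls, 12 aa, fused to the C-terminus of a sfGFP-mCherry timer. Cells are FACS-sorted into 8 mCherry/sfGFP bins and deep-sequenced. PSI runs from 0 (unstable) to 1 (stable). Backgrounds are wild type, das1Δ and doa10Δ at 30 °C, and wild type, das1Δ, cdc34-1 and cdc53-1 at 37 °C; 2-3 technical replicates each.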

Saccharomyces cerevisiae [2] = assay: as above; conditions: genetic background: wild type; temperature: 30 C
[3] = genetic background: cdc34-1, temperature: 37 C
[4] = genetic background: cdc53-1, temperature: 37 C
[5] = genetic background: das1 deletion, temperature: 30 C
[6] = genetic background: das1 deletion, temperature: 37 C
[7] = genetic background: doa10 deletion, temperature: 30 C
[8] = genetic background: wild type, temperature: 30 C
[9] = genetic background: wild type, temperature: 37 C
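Note: PSI is a weighted mean of sequencing reads over stability bins, variants kept only with over 10 reads, mCherry proximal and sfGFP distal, peptide attached via GGGS linker.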

Sequence | protein stability index (Saccharomyces cerevisiae [1]; [3]) | protein stability index (Saccharomyces cerevisiae [1]; [4]) | protein stability index (Saccharomyces cerevisiae [1]; [5]) | protein stability index (Saccharomyces cerevisiae [1]; [6]) | protein stability index (Saccharomyces cerevisiae [1]; [7]) | protein stability index (Saccharomyces cerevisiae [1]; [8]) | protein stability index (Saccharomyces cerevisiae [1]; [9]) | protein stability index (Saccharomyces cerevisiae [2])
VLPCSLVPLRLH | 0.66 ± 0.015 | 0.704 ± 0.029 | 0.642 ± 0.012 | 0.702 ± 0.011 | 0.349 ± 0.013 | 0.374 ± 0.026 | 0.548 ± 0.0098 | 0.445 ± 0.014
LLVLPFFSLSRF | 0.896 ± 0.028 | 0.90351 ± 0.00018 | 0.774 ± 0.0081 | 0.8734 ± 0.0026 | 0.748 ± 0.024 | 0.763 ± 0.017 | 0.852 ± 0.019 | 0.816 ± 0.01
SCGVYVVFVLVE | 0.0658 ± 0.027 | 0.133 ± 0.047 | 0.16 ± 0.042 | 0.294 ± 0.006 | 0.128 ± 0.026 | 0.152 ± 0.022 | 0.246 ± 0.0014 | 0.286 ± 0.16
FLSRHFLFLSFV | 0.467 ± 0.036 | 0.489 ± 0.047 | 0.505 ± 0.019 | 0.6779 ± 0.0061 | 0.4114 ± 0.0017 | 0.308 ± 0.031 | 0.443 ± 0.006 | 0.409 ± 0.016
HLYCYNILLVSG | 0.2001 ± 0.00066 | – | 0.306 ± 0.04 | 0.419 ± 0.007 | 0.201 ± 0.018 | 0.254 ± 0.015 | 0.375 ± 0.038 | 0.286 ± 0.042
FVVIFRFSRFSA | 0.419 ± 0.12 | 0.477 ± 0.012 | 0.336 ± 0.025 | 0.512 ± 0.018 | 0.313 ± 0.0064 | 0.326 ± 0.0097 | 0.494 ± 0.037 | 0.39 ± 0.0004
LFRFVFLLFGFW | 0.452 ± 0.019 | 0.428 ± 0.025 | 0.435 ± 0.015 | 0.566 ± 0.032 | 0.4885 ± 0.0013 | 0.423 ± 0.034 | 0.526 ± 0.026 | 0.446 ± 0.049
YNTVALRITLIT | 0.444 ± 0.017 | 0.538 ± 0.013 | 0.329 ± 0.05 | 0.5018 ± 0.0042 | 0.209 ± 0.00078 | 0.228 ± 0.017 | 0.364 ± 0.0086 | 0.348 ± 0.03
LVSYHKMAISSF | 0.595 ± 0.017 | 0.58 ± 0.019 | 0.436 ± 0.022 | 0.626 ± 0.047 | 0.421 ± 0.0095 | 0.44 ± 0.022 | 0.571 ± 0.0095 | 0.47 ± 0.051
LAKPTVRKIICV | 0.41 ± 0.0086 | 0.387 ± 0.025 | 0.301 ± 0.049 | 0.4672 ± 0.0038 | 0.263 ± 0.017 | 0.296 ± 0.04 | 0.421 ± 0.0089 | 0.419 ± 0.007
IKTKGRYKKQRT | 0.632 ± 0.051 | 0.709 ± 0.01 | 0.679 ± 0.049 | 0.743 ± 0.037 | 0.34 ± 0.018 | 0.376 ± 0.058 | 0.572 ± 0.045 | 0.408 ± 0.014
FCCFFPFLWRVF | 0.593 ± 0.028 | 0.609 ± 0.034 | 0.541 ± 0.013 | 0.663 ± 0.017 | 0.317 ± 0.009 | 0.322 ± 0.016 | 0.455 ± 0.0052 | 0.378 ± 0.018
RVCWLRAFGFLV | 0.666 ± 0.033 | 0.718 ± 0.019 | 0.587 ± 0.022 | 0.724 ± 0.024 | 0.258 ± 0.015 | 0.29 ± 0.051 | 0.57118 ± 0.00039 | 0.305 ± 0.028
SLFDQDCGGTVW | 0.756 ± 0.034 | 0.78 ± 0.013 | 0.686 ± 0.016 | 0.784 ± 0.014 | 0.655 ± 0.014 | 0.6706 ± 0.0058 | 0.804 ± 0.016 | 0.764 ± 0.027
FFLRFGLFLFTL | 0.491 ± 0.0061 | 0.5109 ± 0.004 | 0.429 ± 0.017 | 0.564 ± 0.0091 | 0.4004 ± 0.0018 | 0.367 ± 0.05 | 0.4928 ± 0.0041 | 0.421 ± 0.049
LLVKFTFLIIFT | 0.146 ± 0.0079 | 0.257 ± 0.089 | 0.191 ± 0.011 | 0.31 ± 0.019 | 0.27 ± 0.02 | 0.2 ± 0.015 | 0.2767 ± 0.0024 | 0.266 ± 0.025
GCLSFVAAVHLH | 0.624 ± 0.026 | 0.6949 ± 0.0026 | 0.598 ± 0.043 | 0.69689 ± 0.00038 | 0.284 ± 0.024 | 0.332 ± 0.028 | 0.528 ± 0.034 | 0.4325 ± 0.0028
VWACWCGWVLLM | 0.319 ± 0.038 | 0.388 ± 0.024 | 0.314 ± 0.027 | 0.4667 ± 0.0039 | 0.153 ± 0.0066 | 0.15 ± 0.019 | 0.195 ± 0.0032 | 0.235 ± 0.072
LIRVLRVLRHSS | 0.607 ± 0.015 | 0.6917 ± 0.0043 | 0.638 ± 0.018 | 0.7225 ± 0.0011 | 0.167 ± 0.0097 | 0.194 ± 0.021 | 0.382 ± 0.045 | 0.375 ± 0.056
WHFMVFFCFCVD | 0.295 ± 0.04 | 0.399 ± 0.061 | 0.317 ± 0.036 | 0.406 ± 0.0098 | 0.28 ± 0.0047 | 0.277 ± 0.023 | 0.355 ± 0.028 | 0.381 ± 0.024

Sequence | protein stability index (Saccharomyces cerevisiae [1]; [3]) | protein stability index (Saccharomyces cerevisiae [1]; [4]) | protein stability index (Saccharomyces cerevisiae [1]; [5]) | protein stability index (Saccharomyces cerevisiae [1]; [6]) | protein stability index (Saccharomyces cerevisiae [1]; [7]) | protein stability index (Saccharomyces cerevisiae [1]; [8]) | protein stability index (Saccharomyces cerevisiae [1]; [9]) | protein stability index (Saccharomyces cerevisiae [2])
FYTYILTVAEAL | 0.518 ± 0.041 | 0.583 ± 0.04 | 0.457 ± 0.021 | 0.531 ± 0.013 | 0.454 ± 0.0094 | 0.455 ± 0.014 | 0.5273 ± 0.0011 | 0.482 ± 0.015
IILGVRQIEVNS | 0.488 ± 0.012 | 0.517 ± 0.031 | 0.358 ± 0.029 | 0.526 ± 0.021 | 0.323 ± 0.0071 | 0.373 ± 0.031 | 0.52 ± 0.0076 | 0.4447 ± 0.0033
RRVPVHIHFSLF | 0.627 ± 0.0066 | 0.707 ± 0.028 | 0.691 ± 0.014 | 0.732 ± 0.039 | 0.156 ± 0.0052 | 0.194 ± 0.021 | 0.393 ± 0.033 | 0.291 ± 0.03
CSFELSVCLMLR | 0.063 ± 0.0088 | 0.07758 ± 0.00064 | 0.133 ± 0.013 | 0.198 ± 0.016 | 0.557 ± 0.015 | 0.107 ± 0.007 | 0.1855 ± 0.0013 | 0.188 ± 0.032
LYCGLIFFLRGV | 0.6263 ± 0.0019 | 0.6389 ± 0.0017 | 0.516 ± 0.018 | 0.6475 ± 0.0026 | 0.468 ± 0.032 | 0.472 ± 0.029 | 0.612 ± 0.0081 | 0.516 ± 0.084
QLGGKVGNCHVV | 0.683 ± 0.046 | 0.7507 ± 0.0047 | 0.6644 ± 0.0051 | 0.732 ± 0.025 | 0.668 ± 0.05 | 0.652 ± 0.009 | 0.715 ± 0.034 | 0.75 ± 0.021
VGVYVWRGVLWA | 0.277 ± 0.025 | 0.402 ± 0.035 | 0.257 ± 0.024 | 0.444 ± 0.0077 | 0.184 ± 0.0022 | 0.218 ± 0.028 | 0.397 ± 0.024 | 0.296 ± 0.044
RLMVHQHTIPVR | 0.463 ± 0.072 | 0.54 ± 0.016 | 0.307 ± 0.037 | 0.559 ± 0.021 | 0.276 ± 0.035 | 0.316 ± 0.0095 | 0.533 ± 0.0081 | 0.4449 ± 0.0039
VVRVIWCQFSCF | 0.494 ± 0.036 | 0.545 ± 0.016 | 0.414 ± 0.026 | 0.595 ± 0.017 | 0.208 ± 0.0071 | 0.234 ± 0.022 | 0.434 ± 0.027 | 0.334 ± 0.0057
FVLSLGQLVFIF | 0.552 ± 0.03 | 0.5818 ± 0.0051 | 0.421 ± 0.028 | 0.607 ± 0.018 | 0.381 ± 0.0082 | 0.397 ± 0.029 | 0.548 ± 0.013 | 0.445 ± 0.016
LSLGVGSDAEGG | 0.687 ± 0.06 | 0.736 ± 0.015 | 0.64 ± 0.02 | 0.743 ± 0.031 | 0.646 ± 0.021 | 0.645 ± 0.007 | 0.712 ± 0.0096 | 0.549 ± 0.17
LPPHLPFPLSAA | 0.657 ± 0.0098 | 0.7225 ± 0.0025 | 0.638 ± 0.0075 | 0.724 ± 0.019 | 0.43 ± 0.0083 | 0.462 ± 0.019 | 0.621 ± 0.0089 | 0.383 ± 0.011
WAIVVLVCFLRL | 0.283 ± 0.011 | 0.299 ± 0.0052 | 0.277 ± 0.022 | 0.388 ± 0.017 | 0.332 ± 0.024 | 0.277 ± 0.019 | 0.362 ± 0.011 | 0.343 ± 0.017
GWFCLFFVVSTG | 0.213 ± 0.034 | 0.3162 ± 0.0016 | 0.225 ± 0.024 | 0.4003 ± 0.0021 | 0.203 ± 0.0087 | 0.225 ± 0.031 | 0.371 ± 0.012 | 0.342 ± 0.026
QARQLEMYMVVF | 0.638 ± 0.066 | 0.532 ± 0.12 | 0.403 ± 0.041 | 0.579 ± 0.02 | 0.379 ± 0.015 | 0.418 ± 0.013 | 0.544 ± 0.0069 | 0.432 ± 0.0045
GGVVGGVGVYDG | 0.702 ± 0.012 | 0.7445 ± 0.0015 | 0.635 ± 0.016 | 0.748 ± 0.019 | 0.65 ± 0.021 | 0.65 ± 0.02 | 0.706 ± 0.015 | 0.707 ± 0.019
HALCLSVYVSAH | 0.265 ± 0.0049 | 0.304 ± 0.022 | 0.249 ± 0.031 | 0.397 ± 0.018 | 0.179 ± 0.0045 | 0.185 ± 0.02 | 0.323 ± 0.018 | 0.281 ± 0.024
LMLGARVSRRIH | 0.64 ± 0.082 | 0.687 ± 0.015 | 0.673 ± 0.026 | 0.707 ± 0.026 | 0.227 ± 0.02 | 0.263 ± 0.049 | 0.5065 ± 0.0015 | 0.402 ± 0.0098
VWLFCLSRLYLL | 0.298 ± 0.039 | 0.383 ± 0.007 | 0.38 ± 0.03 | 0.4939 ± 0.0043 | 0.143 ± 0.015 | 0.101 ± 0.023 | 0.114 ± 0.011 | 0.206 ± 0.052
